Measurements published in patent US8372961B2, “Polynucleotides encoding concatameric immunoadhesion molecules” (Medexgen Co., Ltd., priority 2001, dated 2013).

Legend:
[1] = target: TNFα (Homo sapiens, UniProt P01375); assay: Neutralization of TNFα cytotoxicity on L929 cells (crystal violet staining); type: cell-based; conditions: for IC50 of cytotoxicity inhibition, TNFα treated: actinomycin D 3 μg/ml, TNFα 0.5~2 ng/ml (100% cytotoxicity), 16~18 hrs
Procedure: (§1) An L929 cell [ATCC, Mus musculus (mouse), NCTC clone 929 (derivative of strain L; L-929; L cell) was used for testing the effect of TNFR/Fc fusion protein on the inhibition of cytotoxicity induced by TNFα and TNFβ. This analysis was based on the TNFR activity of inhibiting cytotoxicity induced by TNF (Scallon et al., Cytokine 7:759, 1995).
(§2) L929 cells were inoculated to be 3×10^4 cells/well in 96-well plates, and incubated at 37° C. for 24 hrs in a CO2 incubator. Subsequently, actinomycin D (Sigma, USA) was added to 3 μg/ml, and cells were incubated for 16˜18 hrs with TNFα and TNFβ in the concentration of expressing 100% cytotoxicity (0.5˜2 ng/ml), and with serially 10 times diluted TNFR sample. Then, the cells in the 96-well plate were stained by the staining reagent, crystal violet (Wake Pure Chemical Industries, Japan) and the activity of the cells was estimated by the degree of absorbance at 595 nm wavelength using a spectrophotometer (Bio-Rad, Model-550, Japan).

[2] = target: T1, TNFβ (Homo sapiens, UniProt P01374); assay: Neutralization of TNFβ cytotoxicity on L929 cells (crystal violet staining); type: cell-based; conditions: for IC50 of cytotoxicity inhibition, TNFβ treated: actinomycin D 3 μg/ml, TNFβ 0.5~2 ng/ml (100% cytotoxicity), 16~18 hrs
T1 sequence (P01374 35-205): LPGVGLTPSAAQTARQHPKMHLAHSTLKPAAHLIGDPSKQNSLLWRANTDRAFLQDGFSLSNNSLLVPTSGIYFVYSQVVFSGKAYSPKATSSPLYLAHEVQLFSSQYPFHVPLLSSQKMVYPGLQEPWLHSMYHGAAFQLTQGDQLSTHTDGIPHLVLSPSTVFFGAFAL
Procedure: as §1, §2

TNFα, sequence (P01375 77-233 limits assumed, species assumed): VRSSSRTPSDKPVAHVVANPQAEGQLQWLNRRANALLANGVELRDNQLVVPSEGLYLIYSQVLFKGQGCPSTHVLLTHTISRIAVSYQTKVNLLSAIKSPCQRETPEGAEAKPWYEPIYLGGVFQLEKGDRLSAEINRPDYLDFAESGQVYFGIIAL

In the case of “[TNFR1/Fc]2: conventional simple fusion dimeric protein: soluble extracellular domain of human TNFR1 fused to IgG1 Fc; monomer SEQ ID NO: 2 [reference compound]”, the “IC50 of cytotoxicity inhibition, TNFα treated” value [1] is reported as 63 µg/mL and the “IC50 of cytotoxicity inhibition, TNFβ treated” value [2] is reported as 129 µg/mL.

In the case of “[TNFR1-TNFR1/Fc]2: concatameric fusion dimeric protein: two TNFR1 soluble extracellular domains in tandem fused to IgG1 Fc; monomer SEQ ID NO: 6”, the “IC50 of cytotoxicity inhibition, TNFα treated” value [1] is reported as 9 µg/mL, the “inhibitory effect on the cytotoxicity induced by TNFα, compared with simple dimeric fusion proteins” value ([1]; versus TNFR1/Ig and TNFR2/Ig) is reported as “higher inhibitory effect” and the “IC50 of cytotoxicity inhibition, TNFβ treated” value [2] is reported as 20 µg/mL. The “inhibitory effect on the cytotoxicity induced by TNFβ, compared with simple dimeric fusion proteins” value ([2]; versus TNFR1/Ig and TNFR2/Ig) was “higher inhibitory effect”.
